Results taken from the supplement of paper PMC12783771.
± gives the standard deviation of the averaged measurements.

B1: library; numbered along this chain (parent)
chain: MNIQIGELAKRTACPVVTIRFYEQEGLLPPPGRSRGNFRLYGEEHVERLQFIRHCRSLDMPLSDVRTLLSYRKRPDQDCGEVNMLLDEHIRQVESRIGALLELKHHLVELREACSGARPAQSCGILQGLSDCVCDTRGTTAHPSD

Legend:
[1] = variants of: B1; assay: sfGFP reporter fluorescence (15 h) (µM FITC); higher = higher leak; details: library round: Round 0; ligand: none
Outline: (§1)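 Values are endpoint sfGFP fluorescence given as µM FITC equivalents. Fluorescence was read at 485/528 nm on a Synergy Neo2, and FITC standard curves were prepared in 50 mM sodium borate pH 8.5. Reactions of 1 μL combined BL21 Star (DE3) PANOx-SP extract, pPbrR-sfGFP reporter, 30 μg/mL GamS and linear PbrR templates (PCR-made, Echo-normalized to 5 nM), with 1 µM lead chloride, 30 µM zinc acetate or no metal, for 15 hr at 30 °C.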

[2] = variants of: B1; assay: sfGFP reporter fluorescence (15 h) (µM FITC); higher = stronger transcriptional activation; details: library round: Round 0
Outline: as §1

Row | Variant | sfGFP reporter fluorescence [1] | sfGFP reporter fluorescence ([2]; ligand: 1 µM Pb) | sfGFP reporter fluorescence ([2]; ligand: 30 µM Zn)
1 | L129R | 0.0588 ± 0.00078 | 0.05901 ± 0.00052 | 0.0557
2 | L129E | 0.0581 ± 0.0013 | 0.0597 ± 0.0021 | 0.0546 ± 0.0015
3 | L129G | 0.0526 ± 0.00078 | 0.0542 ± 0.001 | 0.0509 ± 0.0021
4 | L129A | 0.0572 ± 0.0021 | 0.0561 ± 0.001 | 0.0574 ± 0.0018
5 | L129W | 0.0572 ± 0.0026 | 0.06047 ± 0.00052 | 0.05717 ± 0.00052
6 | L129Y | 0.057 ± 0.0018 | 0.05901 ± 0.00052 | 0.05626 ± 0.00026
7 | L129M | 0.0577 ± 0.00078 | 0.05901 ± 0.00052 | 0.0788 ± 0.0047
8 | L129Q | 0.0588 ± 0.0018 | 0.0574 ± 0.0013 | 0.05406 ± 0.00026
9 | L129F | 0.0559 ± 0.0013 | 0.0581 ± 0.00078 | 0.0564 ± 0.001
10 | L129D | 0.0588 ± 0.0013 | 0.05992 ± 0.00026 | 0.055 ± 0.001
11 | L129H | 0.0586 ± 0.0015 | 0.0586 ± 0.0021 | 0.0583 ± 0.0015
12 | L129V | 0.0557 ± 0.001 | 0.05717 ± 0.00052 | 0.05351 ± 0.00052
13 | L129P | 0.05387 ± 0.00052 | 0.055 ± 0.0036 | 0.0491 ± 0.0026
14 | G138A | 0.0597 ± 0.001 | 0.0724 ± 0.0018 | 0.697 ± 0.17
15 | P143E | 0.0563 ± 0.00078 | 0.0696 ± 0.0026 | 0.635 ± 0.04
16 | P143G | 0.05351 ± 0.00052 | 0.06945 ± 0.00026 | 0.71 ± 0.092
17 | P143L | 0.0563 ± 0.0018 | 0.0782 ± 0.0029 | 0.837 ± 0.046
18 | P143F | 0.0568 ± 0.0015 | 0.0819 ± 0.0039 | 0.777 ± 0.052
19 | P143K | 0.0581 ± 0.00078 | 0.07293 ± 0.00052 | 0.889 ± 0.15
20 | P143C | 0.0574 ± 0.0013 | 0.07678 ± 0.00026 | 0.495 ± 0.12
21 | P143M | 0.05736 ± 0.00026 | 0.0799 ± 0.001 | 0.812 ± 0.12
22 | P143A | 0.0696 ± 0.0015 | 0.0806 ± 0.0026 | 0.4 ± 0.12
23 | P143D | 0.05754 ± 0.00052 | 0.0733 ± 0.0021 | 0.782 ± 0.024

Row | Variant | sfGFP reporter fluorescence [1] | sfGFP reporter fluorescence ([2]; ligand: 1 µM Pb) | sfGFP reporter fluorescence ([2]; ligand: 30 µM Zn)
24 | P143I | 0.05534 ± 0.00052 | 0.0768 ± 0.0023 | 0.801 ± 0.12
25 | P143H | 0.0585 ± 0.0018 | 0.0786 ± 0.0013 | 0.764 ± 0.072
26 | L126I | 0.0542 ± 0.001 | 0.0568 ± 0.0015 | 0.238 ± 0.012
27 | L126A | 0.0685 ± 0.001 | 0.0682 ± 0.0026 | 0.0691 ± 0.0039
28 | L126S | 0.0592 ± 0.0018 | 0.0585 ± 0.00078 | 0.05443 ± 0.00026
29 | L126K | 0.0597 ± 0.0031 | 0.05919 ± 0.00026 | 0.0564 ± 0.001
30 | L126T | 0.0596 ± 0.0018 | 0.0579 ± 0.0036 | 0.057 ± 0.0029
31 | L126F | 0.05699 ± 0.00026 | 0.0583 ± 0.001 | 0.0586 ± 0.0021
32 | L126E | 0.0594 ± 0.0021 | 0.05772 ± 0.00026 | 0.0557 ± 0.001
33 | L126R | 0.0619 ± 0.0015 | 0.05992 ± 0.00026 | 0.0572 ± 0.0021
34 | L126D | 0.0597 ± 0.0021 | 0.0581 ± 0.00078 | 0.0544 ± 0.0029
35 | L126V | 0.0555 ± 0.0013 | 0.0581 ± 0.00078 | 0.0586
36 | L126Q | 0.05901 ± 0.00052 | 0.0577 ± 0.0018 | 0.05534 ± 0.00052
37 | L126N | 0.05901 ± 0.00052 | 0.05882 ± 0.00026 | 0.05333 ± 0.00026
38 | L126H | 0.0603 ± 0.0018 | 0.0588 ± 0.00078 | 0.0552 ± 0.006
39 | L126G | 0.0539 ± 0.0015 | 0.05571 ± 0.00052 | 0.0502 ± 0.0021
40 | L126Y | 0.0596 ± 0.0018 | 0.05937 ± 0.00052 | 0.0561 ± 0.0021
41 | L126C | 0.059 ± 0.0036 | 0.0572 ± 0.001 | 0.0563 ± 0.0029
42 | L126M | 0.0594 ± 0.0015 | 0.0596 ± 0.0018 | 0.22 ± 0.032
43 | L126P | 0.05552 ± 0.00026 | 0.0555 ± 0.0023 | 0.05113 ± 0.00026
44 | L126W | 0.0586 | 0.0594 ± 0.0026 | 0.0612
45 | T140A | 0.0614 ± 0.0013 | 0.0726 ± 0.0015 | 0.5 ± 0.039
